Key:
[1] = target: PhoP-HA protein, purified (Salmonella enterica serovar Typhimurium (strain 14028s)) (UniProt D0ZV90); test: pull-down
[2] = target: T1, PhoP-HA protein, purified (Salmonella enterica serovar Typhimurium …, UniProt D0ZV90 1-224); test: pull-down
T1 sequence: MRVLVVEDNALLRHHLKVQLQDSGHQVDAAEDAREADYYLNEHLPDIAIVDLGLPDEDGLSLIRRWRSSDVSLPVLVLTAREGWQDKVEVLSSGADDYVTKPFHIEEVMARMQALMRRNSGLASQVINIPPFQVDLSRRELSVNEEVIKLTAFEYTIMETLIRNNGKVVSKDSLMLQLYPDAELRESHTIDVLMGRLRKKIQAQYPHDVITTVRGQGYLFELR

Sequence of ClpS-FLAG, in vitro synthesized (natural protein) (A9N7Z5 whole entry): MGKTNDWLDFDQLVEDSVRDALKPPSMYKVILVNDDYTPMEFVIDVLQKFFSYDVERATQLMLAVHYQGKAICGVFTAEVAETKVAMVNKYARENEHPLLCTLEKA

| Molecule | IC50 [1] [µM] | IC50 [2] [µM] |
| --- | --- | --- |
| ClpS-FLAG, in vitro synthesized (natural protein) | 14.6 | – |
| MgtC-FLAG, in vitro synthesized (natural protein) MEERMLMFPYILNLLAAMLLGALIGAERQWRQRMAGLRTNALVATGAAVFILSSMTTSPDSPGRIAAQIVSGIGFLGAGVIMREGMNVRGLNTAATLWCSAGIGVLCGLGQFKNALAATIIILCANILLREAAQRINQLPISAEGEKRYILKVTCNKEDESAVRQWLLNIVKEAAICLQGLGSVPAQEQGYKEIRAELVGHADYRKTRELIISRIGDNDNITAIHWSIDSQ | – | 8.4 |
